Data from patent US20100093977A1.

Tests used:
[1] = biological target: muc-1 on muc-1 positive human cancer cells (DU145; T47D) (human) (UniProt P15941); experiment: flow cytometry, dye labelled IgG on muc-1 positive T47D (printed T74D) cells
[2] = biological target: muc-1 on muc-1 positive human cancer cells (DU145; T47D) (human) (UniProt P15941); experiment: flow cytometry, dye labelled IgG on DU145 cells, higher dose range
[3] = biological target: muc-1 on muc-1 positive human cancer cells (DU145; T47D) (human) (UniProt P15941); experiment: flow cytometry, dye labelled IgG 0.2 to 200 nM on DU145 cells

Chain of UniProt P15941 (P15941 24-1255, stated change not applied): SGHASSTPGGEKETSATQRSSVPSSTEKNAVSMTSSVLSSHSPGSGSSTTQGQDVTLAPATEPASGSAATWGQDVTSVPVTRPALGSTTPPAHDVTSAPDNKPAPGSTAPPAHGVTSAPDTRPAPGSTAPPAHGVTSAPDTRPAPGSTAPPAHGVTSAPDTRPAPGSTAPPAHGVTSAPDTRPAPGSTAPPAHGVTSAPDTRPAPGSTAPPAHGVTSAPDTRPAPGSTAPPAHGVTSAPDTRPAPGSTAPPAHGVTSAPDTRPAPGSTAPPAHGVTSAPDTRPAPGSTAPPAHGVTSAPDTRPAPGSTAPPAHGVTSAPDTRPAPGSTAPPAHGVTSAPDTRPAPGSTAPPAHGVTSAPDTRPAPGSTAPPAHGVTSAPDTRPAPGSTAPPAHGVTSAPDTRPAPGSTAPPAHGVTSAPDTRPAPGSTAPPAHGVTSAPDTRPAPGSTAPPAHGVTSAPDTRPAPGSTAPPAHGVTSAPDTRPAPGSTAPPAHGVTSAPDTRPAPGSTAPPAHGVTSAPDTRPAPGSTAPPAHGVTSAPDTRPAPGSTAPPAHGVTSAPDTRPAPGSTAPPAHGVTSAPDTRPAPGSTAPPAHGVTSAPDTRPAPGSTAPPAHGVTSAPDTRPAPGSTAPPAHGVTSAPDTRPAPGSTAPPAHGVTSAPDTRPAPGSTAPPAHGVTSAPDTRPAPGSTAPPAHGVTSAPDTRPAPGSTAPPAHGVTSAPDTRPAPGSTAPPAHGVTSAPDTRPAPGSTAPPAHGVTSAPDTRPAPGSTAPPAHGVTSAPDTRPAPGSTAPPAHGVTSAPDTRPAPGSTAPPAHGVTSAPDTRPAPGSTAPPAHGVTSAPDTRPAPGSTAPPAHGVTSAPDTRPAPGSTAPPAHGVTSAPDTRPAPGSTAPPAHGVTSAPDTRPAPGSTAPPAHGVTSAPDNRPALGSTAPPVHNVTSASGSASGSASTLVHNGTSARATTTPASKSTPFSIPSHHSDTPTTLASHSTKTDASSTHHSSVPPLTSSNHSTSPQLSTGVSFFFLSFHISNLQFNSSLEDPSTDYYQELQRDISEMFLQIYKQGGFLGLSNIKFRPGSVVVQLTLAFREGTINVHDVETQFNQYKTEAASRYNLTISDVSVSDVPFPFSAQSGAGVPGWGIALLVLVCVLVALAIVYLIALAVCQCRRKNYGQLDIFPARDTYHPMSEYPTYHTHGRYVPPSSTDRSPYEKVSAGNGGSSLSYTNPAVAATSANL

Row | IgG concentration at which binding plateaus [1] | Substance | also measured
1 | > 100 nM | hCTM01 S171C mutant IgG reduced with 5 mM 2-ME and labelled with AlexaFluor488-C5-maleimide (approximately 4 dyes per IgG; 3.9 dyes per IgG in FIG. 4) (antibody) | –
2 | – | wild type CTM01 IgG labelled via lysine modification with AlexaFluor488-NHS ester (2 dyes per IgG) (antibody) | percent lower binding than kappa cys171-dye labelled S171C mutant IgG [2]: 8%
3 | – | wild type CTM01 IgG labelled with AlexaFluor 488-C5-maleimide under identical conditions (0.7 dyes per IgG) (antibody) | fold lower degree of binding than the S171C mutant labelled via kappa cys171 [3]: 6 fold
4 | 20 nM | wild type hCTM01 IgG reduced with 20 mM 2-ME and labelled with AlexaFluor488-C5-maleimide (approximately 4 dyes per IgG; 3.6 dyes per IgG in FIG. 4) (antibody) | –
